B1: scFv 2447_3A01 (scFv)
scFv: EVQLLESGGGLVQPGGSLRLSCAASGFTFDDYAMHWVRQAPGKGLEWVSGISWNSGSIVYADFVKGRFTISRDNAKNSLYLQMNSLRAEDTALYYCAKDISSGWYPGTFDYWGQGTLVTVSSGGGGSGGGGSGGGASSYELTQDPAVSVALGQTVRITCQGDSLRSYYASWYQQKPGQAPVLVIYGKNNRPSGIPDRFSGSSSGNTASLTVTGAQAEDEADYYCSSRDSSDDVVFGGGTQLTVL
B2: scFv 2447_3A12 (scFv)
scFv: EVQLVQSGAEVKKPGASVKVSCKASGYTFTSYGISWVRQAPGQGLEWMGWISAYNGNTNYAQKLRGRVTMTTDTSTSTAYMELRSLRSDDTAVYYCARDPHILTGYYRGGWFDPWGQGTLVTVSSGGGGSGGGGSGGGASSYELTQDPAVSVVLGQTVRITCQGDSLRSYYASWYQQKPGQAPVLVIYGKNNRPSGIPDRFSGSSSGNTASLTITGAQAEDEADYYCNSRDSSGNHRVFGGGTKLTVL
notes: also called #6
B3: scFv 2447_3H02 (scFv)
scFv: EVQLLESGGGLVQPGRSLRLSCAASGFTFDDYAMHWVRQAPGKGLEWVSGISWDSGSIGYADSVKGRFTISRDNAKNSLYLQMNSLRAEDTALYYCAKDVSSGWYWYAFDIWGQGTLVTVSSGGGGSGGGGSGGGASSYELTQDPAVSVALGQTVRITCQGDILRSYYASWYQQKPGQAPVLVIYGKNNRPSGIPDRFSGSSSGNTASLTITGAQAEDEADYYCNSRDSSGNRVVFGGGTKLTVL
notes: also called #9
B4: positive control scFv G03 (scFv)
scFv: EVQLVQSGAEVKKPGATVKISCKVSGYTFTSYWMHWVQQAPGKGLEWIGYINPGTGYIEYNQKFKDRVTITADKSTDTAYMELSSLRSEDTAVYYCASSTAPFDYWGQGTLVTVSSGGGGSGGGGSGGGASEIVLTQSPGTLSLSPGERATLSCKASQDIKSYLSWYQQKPGQAPRLLIYYATRLADGIPDRFSGSGSGTDFTLTISRLEPEDFAVYYCLQYDESPYTFGQGTKLEIK
B5: scFv 2447_3H08 (scFv)
scFv: EVQLLESGGGLVQPGRSLRLSCAASGFTFDDYAMHWVRQAPGKGLEWVSGISWNSGSIDYADSVKGRFTISRDNSKNTLYLQMNSLRAEDTAVYYCARDRSSGWYTGSFDYWGQGTLVTVSSGGGGSGGGGSGGGASSYELTQDPAVSVALGQTVRITCQGDSLRSYYASWYRQKPGQAPVLVIYGKNNRPSGIPDRFSGSSSGNTASLTIIGAQAEDEADYYCQSRDSSDNRVLFGGGTKVTVL
notes: also called #10
B6: scFv 2447_3A08 (scFv)
scFv: EVQLVQSGAEVKKPGASVKVSCKASGYTFTSYGISWVRQAPGQGLEWMGWISAYNGNTNYAQKLQGRVTMTTDTSTSTAYMELRSLRSDDTAVYYCARDRATIFGVVTPFDYWGQGTLVTVSSGGGGSGGGGSGGGASSYELTQDPAVSVALGQTVRITCQGDSIRSYSASWYQQKPGQAPRLVIYGKNNRPSGIPDRVSGSTSGNTASLTVTGAQAEDEADYYCNSRDSSGNRVVFGGGTQLTVL
B7: scFv 2447_2H08 (scFv)
scFv: EVQLVQSGAEVKKPGASVKVSCKASGYTFTNYGISWVRQAPGQGLEWMGWISAYNGNTNYAQKLQGRVTMTTDTSTSTAYMELRSLRSDDTAVYYCARDPHILTGYYRGGWFDPWGQGTTVTVSSGGGGSGGGGSGGGASSYELTQDPAVSVALGQTVTITCQGDSLRTSYAGWLQQKPGQAPVLVLYGKTSRPSGIPDRFSGSTSGNTASLTITGAQAEDEAEYFCHSRDSNDNYLEVVFGGGTKLTVL
B8: scFv 2447_3C08 (scFv)
scFv: EVQLLESGGGLVQPGGSLRLSCAASGFTFDDYAMHWVRQAPGKGLEWVSGISWNSGSIGYADSVKGRFTISRDNAKNSLYLQMNSLRAEDTALYYCAKDRGSGYEGNYYGMDVWGQGTLVTVSSGGGGSGGGGSGGGASSYELTQDPAVSVALGQTVRITCQGDSLRSYYASWYQQKPGQAPVLVIYGKNNRPSGIPDRFSGTTSGNTASLTITGAQAEDEADYYCNSRDSSGNHYVFGTGTKVTVL
B9: scFv 2447_3B07 (scFv)
scFv: QVQLVESGGVVVQPGGSLRLSCAASGFTFDDYAMHWVRQAPGRGLEWVSLTSWDGGSTYYADSVKGRFTISRDNSKNSLYLQMNSLRAEDTALYYCAKDHSSGWYNGGMDVWGQGTMVTVSSGGGGSGGGGSGGGASSYELTQDPAVSVALGQTVRITCQGDSLRSYYASWYQQKPGQAPVLVIYGKNNRPSGIPDRFSGSSSGNTASLTITGAQAEDEADYYCNSRDSSGNHVVFGGGTKLTVL
B10: scFv 2447_3A09 (scFv)
scFv: EVQLLESGGGLVQPGRSLRLSCAATGFTFDDYAMHWVRQAPGKGLEWVSGISWNSGSIGYADSVKGRFTISRDNAKNSLYLQMNSLRAEDTASYYCAKDVSSGWYWYAFDIWGQGTLVTVSSGGGGSGGGGSGGGASSYELTQDPAVSVALGQTVRITCQGDSLRSYYASWYQQKPGQAPVLVIYGKNNRPSGIPGRFSGSSSGNTASLTVTGAQAEDEADYYCNSRDSGGSVVFGGGTKLTVL
notes: also called #5

These binders were tested against T1, mucin1 (MUC1) naturally expressed on human breast cancer cell lines (human, UniProt P15941 24-1255) (assay: flow cytometry (PE MFI, corrected to G03 at 380 ug/mL) on T47D cells).
T1 construct: whole, on cells; The cell line of each entry is named under assay or readout; also called MUC1 on T47D cells; MUC1 on HCC70 cells
T1 sequence (P15941 24-1255): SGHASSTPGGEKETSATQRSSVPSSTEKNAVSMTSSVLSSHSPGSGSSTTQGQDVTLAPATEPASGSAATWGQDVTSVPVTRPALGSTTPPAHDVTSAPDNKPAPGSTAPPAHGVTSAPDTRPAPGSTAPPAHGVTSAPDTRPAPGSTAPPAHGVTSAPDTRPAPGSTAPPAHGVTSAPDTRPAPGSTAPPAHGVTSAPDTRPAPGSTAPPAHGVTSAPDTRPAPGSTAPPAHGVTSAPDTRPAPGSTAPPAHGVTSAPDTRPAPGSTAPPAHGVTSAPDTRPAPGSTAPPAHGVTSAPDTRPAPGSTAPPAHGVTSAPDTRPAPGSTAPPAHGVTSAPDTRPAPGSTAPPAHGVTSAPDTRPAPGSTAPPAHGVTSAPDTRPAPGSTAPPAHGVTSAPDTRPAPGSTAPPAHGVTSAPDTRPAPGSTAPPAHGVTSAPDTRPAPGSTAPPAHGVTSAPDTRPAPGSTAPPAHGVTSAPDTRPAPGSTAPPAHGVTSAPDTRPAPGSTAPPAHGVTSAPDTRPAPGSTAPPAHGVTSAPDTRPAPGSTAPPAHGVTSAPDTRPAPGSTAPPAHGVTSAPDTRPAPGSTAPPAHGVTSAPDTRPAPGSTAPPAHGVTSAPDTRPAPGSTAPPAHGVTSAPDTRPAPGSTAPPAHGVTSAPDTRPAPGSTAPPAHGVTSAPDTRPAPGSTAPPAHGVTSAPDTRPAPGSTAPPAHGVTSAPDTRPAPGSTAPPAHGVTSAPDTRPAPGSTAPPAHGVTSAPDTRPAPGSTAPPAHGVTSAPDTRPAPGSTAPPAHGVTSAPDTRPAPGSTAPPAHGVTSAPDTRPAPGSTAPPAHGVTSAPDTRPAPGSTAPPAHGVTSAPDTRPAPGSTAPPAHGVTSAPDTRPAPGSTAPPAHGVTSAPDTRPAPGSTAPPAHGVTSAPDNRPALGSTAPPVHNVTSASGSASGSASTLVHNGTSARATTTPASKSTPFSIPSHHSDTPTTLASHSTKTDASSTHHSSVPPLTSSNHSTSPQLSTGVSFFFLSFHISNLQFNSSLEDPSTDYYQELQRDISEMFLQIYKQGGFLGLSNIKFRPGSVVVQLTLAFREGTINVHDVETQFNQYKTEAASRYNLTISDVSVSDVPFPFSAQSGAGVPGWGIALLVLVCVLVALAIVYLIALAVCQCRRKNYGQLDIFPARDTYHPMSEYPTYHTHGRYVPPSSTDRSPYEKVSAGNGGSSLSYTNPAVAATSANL

Binder | EC50 [µg/mL]
B1 | 11.1
B2 | 0.75
B3 | 1.6
B4 | 3.56
B5 | 5.6
B6 | 3.76
B7 | 130
B8 | 2.04
B9 | 3.47
B10 | 2.2

— US20250281533A1 (LG CHEM, published 2025)
